Assay results: patent US20250216381A1

Columns and labels:
[1] = biological target: KRAS G12V peptide on HLA-DRA*01:01 / HLA-DRB1*07:01 (human); assay: NFAT-luciferase; peptide titration in the Jurkat-NFAT and COS-7 system; full-length, on cells; conditions: chains Valpha:Vbeta
[2] = biological target: KRAS G12V presented by HLA-DRB1*07:01 (human), P01116; assay: cell-based or functional assay

| lowest peptide concentration with reactivity [1] [ng/mL] | peptide concentration at which reactivity is still seen (peptide titration, Jurkat-NFAT & COS-7 system) [2] [ng/mL] | Binder |
| --- | --- | --- |
| < 1 |  | 9976-TCR38-2 (protein) chain 1: QSVTQLGSHVSVSEGALVLLRCNYSSSVPPYLFWYVQYPNQGLQLLLKYTTGATLVKGINGFEAEFKKSETSFHLTKPSAHMSDAAEYFCAVTEPGGYQKVTFGTGTKLQVIP chain 2: AVVSQHPSRVICKSGTSVKIECRSLDFQATTMFWYRQFPKQSLMLMATSNEGSKATYEQGVEKDKFLINHASLTLSTLTVTSAHPEDSSFYICSATGQHAGANVLTFGAGSRLTVL |
|  | 1 | 9976-TCR38-2 (TCR) TCR alpha: AQSVTQLGSHVSVSEGALVLLRCNYSSSVPPYLFWYVQYPNQGLQLLLKYTTGATLVKGINGFEAEFKKSETSFHLTKPSAHMSDAAEYFCAVTEPGGYQKVTFGTGTKLQVIPNIQNPEPAVNIQNPEPAVYQLKDPRSQDSTLCLFTDFDSQINVPKTMESGTFITDKTVLDMKAMDSKSNGAIAWSNQTSFTCQDIFKETNATYPSSDVPCDATLTEKSFETDMNLNFQNLLVIVLRILLLKVAGFNLLMTLRLWSS TCR beta: GAVVSQHPSRVICKSGTSVKIECRSLDFQATTMFWYRQFPKQSLMLMATSNEGSKATYEQGVEKDKFLINHASLTLSTLTVTSAHPEDSSFYICSATGQHAGANVLTFGAGSRLTVLEDLRNEDLRNVTPPKVSLFEPSKAEIANKQKATLVCLARGFFPDHVELSWWVNGKEVHSGVSTDPQAYKESNYSYCLSSRLRVSATFWHNPRNHFRCQVQFHGLSEEDKWPEGSPKPVTQNISAEAWGRADCGITSASYQQGVLSATILYEILLGKATLYAVLVSTLVVMAMVKRKNS |
